From patent publication US20250179197A1

Experiments:
[1] = molecular target: T1, IL-18 receptor (IL-18Rα and IL-18Rβ) on HEK-Blue IL-18 cells (UniProt Q13478); assay: cell-based or functional assay
T1 sequence (looked up) 1: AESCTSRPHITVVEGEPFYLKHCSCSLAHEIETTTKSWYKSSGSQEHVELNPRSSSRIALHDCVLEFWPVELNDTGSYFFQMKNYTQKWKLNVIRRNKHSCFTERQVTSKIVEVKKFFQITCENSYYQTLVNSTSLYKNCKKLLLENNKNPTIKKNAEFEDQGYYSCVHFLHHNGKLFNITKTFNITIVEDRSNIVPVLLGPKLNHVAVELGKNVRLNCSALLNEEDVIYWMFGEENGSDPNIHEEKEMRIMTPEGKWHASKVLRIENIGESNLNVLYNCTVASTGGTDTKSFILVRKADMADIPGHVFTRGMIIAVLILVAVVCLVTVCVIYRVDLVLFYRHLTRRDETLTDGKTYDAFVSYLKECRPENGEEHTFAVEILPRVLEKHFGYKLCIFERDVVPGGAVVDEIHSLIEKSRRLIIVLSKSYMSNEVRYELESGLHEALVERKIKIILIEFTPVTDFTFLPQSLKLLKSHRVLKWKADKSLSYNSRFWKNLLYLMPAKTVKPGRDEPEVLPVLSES
T1 sequence (looked up) 2: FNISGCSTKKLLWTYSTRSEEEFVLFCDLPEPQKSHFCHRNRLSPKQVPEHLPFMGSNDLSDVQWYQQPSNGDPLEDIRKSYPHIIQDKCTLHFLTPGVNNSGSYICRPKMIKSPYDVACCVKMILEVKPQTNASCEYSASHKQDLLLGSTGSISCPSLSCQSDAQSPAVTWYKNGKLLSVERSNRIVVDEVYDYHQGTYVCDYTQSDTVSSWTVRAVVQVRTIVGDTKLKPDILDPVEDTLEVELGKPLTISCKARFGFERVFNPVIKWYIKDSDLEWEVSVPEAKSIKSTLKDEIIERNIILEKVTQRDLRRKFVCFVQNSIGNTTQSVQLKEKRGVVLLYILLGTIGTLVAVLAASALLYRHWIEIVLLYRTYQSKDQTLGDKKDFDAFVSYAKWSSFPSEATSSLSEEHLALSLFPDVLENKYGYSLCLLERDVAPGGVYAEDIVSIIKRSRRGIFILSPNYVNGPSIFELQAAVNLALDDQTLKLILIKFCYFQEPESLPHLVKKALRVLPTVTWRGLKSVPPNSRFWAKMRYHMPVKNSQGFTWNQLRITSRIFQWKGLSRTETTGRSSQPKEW

[2] = molecular target: T2, IL-18 receptor (IL-18Rα/IL-18Rβ) on human PBMCs (human) (UniProt Q13478); assay: cell-based or functional assay
T2 sequence (looked up) 1: T1 sequence (looked up) 1
T2 sequence (looked up) 2: T1 sequence (looked up) 2

Sequence of Human IL-18 (Q14116 37-193 limits assumed): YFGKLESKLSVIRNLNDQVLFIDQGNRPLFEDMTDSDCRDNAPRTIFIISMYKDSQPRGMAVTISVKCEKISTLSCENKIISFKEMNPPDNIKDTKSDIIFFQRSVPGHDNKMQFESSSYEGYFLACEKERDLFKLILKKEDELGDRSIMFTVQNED

HEK-Blue: Abs 405 at 100 nM [1]: 2.6 absorbance
HEK-Blue: Fold over background [1]: 14.4 fold
Calculated maximum induction of IFN-γ after 24 hours, donor 1 [2]: 42000
Calculated maximum induction of IFN-γ after 24 hours, donor 2 [2]: 5300
Calculated maximum induction of IFN-γ after 24 hours, donor 3 [2]: 89000
Calculated maximum induction of IFN-γ after 24 hours, donor 4 [2]: 69000
Calculated maximum induction of IFN-γ after 24 hours, donor 5 [2]: 150000
Calculated maximum induction of IFN-γ after 24 hours, donor 6 [2]: 28000
Substance: Human IL-18 (from UniProt Q14116 37-193) (ligand)
